Experimental data: PMC8558179, “The C-terminal peptide of CCL21 drastically augments CCL21 activity through the dendritic cell lymph node homing receptor CCR7 by interaction with the receptor N-terminus” (Cellular and Molecular Life Sciences: CMLS, 2021)
Numbering of substitutions follows the chain as printed.

Key:
human CCR7 [1] = target: T1, human CCR7 (Homo sapiens, UniProt P32248); assay: Gαi signaling, BRET-based cAMP (CAMYEL) assay at CCR7 in CHO cells; format: cell-based; settings: for boosting of CCL21-induced Gαi signaling: CCL21 + 10 µM peptide, BRET cAMP, n = 3–8
T1 construct: CCR7 contains a 24-residue long signal peptide cleaved of from the mature protein; expressed in transfected cells; host or cells: CHO cells (CHO-K1, CHO suspension WT, GAG-deficient and 5xKO GalNAc-T knockout lines), transient transfection
T1 sequence (P32248 25-378): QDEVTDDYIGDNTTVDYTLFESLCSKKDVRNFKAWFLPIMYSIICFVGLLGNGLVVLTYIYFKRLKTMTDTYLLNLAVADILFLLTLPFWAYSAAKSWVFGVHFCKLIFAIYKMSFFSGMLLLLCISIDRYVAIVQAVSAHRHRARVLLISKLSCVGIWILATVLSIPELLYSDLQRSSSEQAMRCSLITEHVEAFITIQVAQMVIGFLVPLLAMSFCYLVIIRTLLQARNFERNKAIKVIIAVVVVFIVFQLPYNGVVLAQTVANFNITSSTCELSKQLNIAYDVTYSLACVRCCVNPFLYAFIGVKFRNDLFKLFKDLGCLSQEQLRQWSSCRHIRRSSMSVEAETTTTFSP
Experimental: (§1) Human DCs were cultured in X-vivo 15 medium with 2% human AB serum and glutamine. CHO-K1 pgsB-618 ATCC® CRL2241™ [24] and CHO-K1 cells were grown in RPMI with 10% FBS and Penicillin/Streptomycin. HS^−/− (CHO EXTL 2/3 −/−), CS^−/− (CSGALNACT 1/2^−/− CHSY1^−/−), 5xKO (GalNAc-T1, 2, 4, 7 and 10 −/−) and WT CHO suspension cells were grown in suspension in 1:1 of EX-Cell CD CHO fusion media and Balanced CD CHO growth A medium supplemented with 2% glutamine and Penicillin/Streptomycin. Cells were kept in a humidified incubator at 37 °C, 5% CO2.
(§2) For cAMP assays, adherent CHO cells were transfected using lipofectamine while suspension cells were transfected using the FectoPro method. Cells were seeded in a 6-well plate, either 500,000 (adherent cells) or 200,000 (suspension cells) cells/well. The next day the cells were transiently transfected with vectors encoding the human CCR7 and CAMYEL sensor (cAMP sensor using YFP-Epac-RLuc) in a 1:5 ratio using lipofectamine (6 µl/well) or FectoPro (4 µl/well). Lipofectamine transfections were terminated by changing to 2 ml fresh cultivation medium after 5 h, while Fectopro transfection was terminated after 3 h by adding 2.5 ml fresh cultivation medium and 2 µl FectoPro Boost reagent per well. The cells were incubated under standard cultivation conditions overnight. For β-arrestin recruitment assays, cells were transfected with CCR7 and vectors expressing a Renilla luciferase arrestin3 fusion protein and membrane-SH3-citrine protein. The cells were then resuspended in PBS w/glucose and seeded in 96-well white iso plates (~ 25,000 cells/well). Coelenterazine (bioluminescence substrate) was added to a final conc. of 5 µM. After 10 min, cells were stimulated with varying ligand concentrations for a total of 40 min. Forskolin was added to each well 5 min after ligand addition to reach a final conc. of 5 µM. The plates were kept in the dark at all times. Emission signal from Rluc and eYFP was measured using the Envision machine at 530 and 480 nm and the BRET signal determined as the ratio between (eYFP/Rluc).

[2] = test system: human moDCs naturally expressing CCR7; assay: 3D chemotaxis, time-lapse recording of human moDCs in Collagen I (chemotactic index); format: cell-based; settings: human moDCs; for boosting of CCL21-induced DC chemotaxis: 10 nM CCL21, peptide 10 µM (0.1–10 µM in the dose series)
Experimental: Buffy coats were obtained from Rigshospitalet Copenhagen, as anonymous material, with written informed consent from the donors. The local ethics committee at Faculty of Health and Medical Sciences at the University of Copenhagen (Research Ethics Committee for Sund and Science, University of Copenhagen) found the project exempt from approval. DCs were prepared from human peripheral blood mononuclear cells (PBMC) isolated from buffy coats by centrifugation on a Lymphoprep gradient as previously described. Briefly, monocytes were isolated by plastic adherence of PBMC. Adhered monocytes were subsequently cultured and differentiated into immature DCs by incubation with IL-4 (250 U/ml) and GM-CSF (1000 U/ml) for 6 days, followed by activation into mature DCs by incubation with IL-6 (1000 U/ml), IL-1β (1000 U/ml), TNF-α (1000 U/ml), and PGE2 (1 µg/ml) for an additional 2 days in the same medium.
as §1
Chemotaxis assays were conducted as previously described. Briefly, mature human moDCs were left to acclimatize in medium for 30 min at room temperature (RT) upon defrosting, before assay start. DCs were seeded in Bovine Collagen I mixture prepared by mixing 10 µl Na2HCO3 (7.5%), 20 µl MEM (10×), 150 µl PureCol and 90 µl DCs dissolved in X-vivo 15 medium (2 × 10^6 cells/ml). After incubation for 45 min in a humidified incubator at 37 °C (5% CO2), the source and sink reservoirs were filled according to the manufacturer’s instructions and chemotaxis was tracked in a time-lapse microscope with a humidified temperature controlled stage incubator for 12 h at a 2 min interval. Cell migration (approximately 20–40 cells per viewing field) was tracked using a commercial tracking program (Autozell) and subsequently analyzed to get a population-based chemotactic index (CI) value (MATLAB). CI is a measure of net translocation distance to the source relative to total distance traveled and was thus calculated as the ratio of the distance traveled in the direction of the gradient over the total distance traveled and therefore is a conservative measure of the directedness of cell migration.

CCR7 = settings: allosteric antagonist, cytosolic site; cited from earlier work
Description: In the absence of peptide, CCL19 and CCL21 contact CCR7 in different manners. The interaction of CCL21 depends on residues in the top of TM-3, -4 and -5 that are not important for CCL19 interaction with CCR7. The binding of these two chemokines induce different structural changes in CCR7 to disrupt old and create new hydrogen bonds. CCL21 binding to CCR7 is believed to involve movements within the majority of helical domains (TM2, -3, -4, -5, -6, and -7), whereas the changes induced by CCL19 are restricted to regions of TM3, -5, and -6 [37]. The conformational changes in CCR7 ind ...

[3] = target: T2, CCR7^−O (CCR7 T37/38/42A) (Homo sapiens, UniProt P32248, T37A/T38A/T42A); assay: Gαi signaling, BRET cAMP assay, CCR7 lacking N-terminal O-glycosylation sites; format: cell-based; settings: no peptide, CCR7^−O vs WT CCR7
T2 construct: CCR7 contains a 24-residue long signal peptide cleaved of from the mature protein; expressed in transfected cells; host or cells: CHO cells, transient transfection
T2 sequence (P32248 25-378 T37A/T38A/T42A): T1 sequence (P32248 25-378) with T13A, T14A, T18A
Experimental: O-glycosylation deficient CCR7 was generated from WT through Quick change PCR using the following primers: […]
as §2

human CCR7 [4] = target: T1, human CCR7; assay: β-arrestin recruitment, BRET-based assay at CCR7; format: cell-based; settings: no peptide, n = 4
Experimental: as §2

Compound	boosting of CCL21-induced Gαi signaling (human CCR7 [1]; CHO cells)	boosting of CCL21-induced DC chemotaxis [2]	further results
TP81-102: C-terminally truncated version of TP81-111 (RKDRGASKTGKKGKGSKGCKRT; UniProt O00585 104-125, looked up, fragment)	conserved boosting effects	conserved boosting effects	–
TP91-111: C21TP reduced N-terminally by 20 aa (KKGKGSKGCKRTERSQTPKGP; UniProt O00585 114-134, looked up, fragment)	retaining boosting ability	retaining boosting ability	–
TP81-97: C-terminally truncated version of TP81-111 (RKDRGASKTGKKGKGSK; UniProt O00585 104-120, looked up, fragment)	reduced signaling via cAMP	blunted chemotaxis boosting ability	–
TP81-111: naturally occurring peptide generated upon plasmin cleavage of CCL21 (RKDRGASKTGKKGKGSKGCKRTERSQTPKGP; UniProt O00585 104-134, looked up, fragment)	boosted even more	at least to the same extent as TP71-111	–
Cc1ccc(C(NC2=NS(=O)(=O)N=C2Nc2ccc(C)c(C(=O)N(C)C)c2O)C(C)(C)C)o1 (centres unmarked) [Cmp2105]	–	–	competition with CCL19 binding to CCR7 (CCR7): outcompetes CCL19 binding to CCR7
CCL19: endogenous chemokine, CCR7 ligand, from R&D Systems	–	–	chemokine signaling in O-glycosylation-deficient 5xKO cells (human CCR7 [1]; CHO 5xKO vs WT, CCL21 alone, CCL19 in absence or presence of C21TP): only slightly impaired; pEC50, Gαi signaling, chemokine alone (human CCR7 [1]; no peptide, CHO cells, forskolin 5 µM, n = 4): 7.94; chemokine activity on its own at CCR7^−O [3]: without affecting basal CCR7 activation via CCL19 and CCL21; pEC50, β-arrestin recruitment, chemokine alone (human CCR7 [4]): 7.11; chemotaxis towards chemokine alone ([2]; 10 nM chemokine, no peptide): strong migratory signal
